One molecule from patent US20220034883A1 (SYSMEX, published 2022) can be followed below.

The target in the assay is T1, His-tagged recombinant N protein of SARS-CoV (SARS-CoV, UniProt P59595 1-422).
T1 construct: mature
Kind of assay: ELISA screening of hybridomas.

T1 sequence (P59595 1-422, tags left off): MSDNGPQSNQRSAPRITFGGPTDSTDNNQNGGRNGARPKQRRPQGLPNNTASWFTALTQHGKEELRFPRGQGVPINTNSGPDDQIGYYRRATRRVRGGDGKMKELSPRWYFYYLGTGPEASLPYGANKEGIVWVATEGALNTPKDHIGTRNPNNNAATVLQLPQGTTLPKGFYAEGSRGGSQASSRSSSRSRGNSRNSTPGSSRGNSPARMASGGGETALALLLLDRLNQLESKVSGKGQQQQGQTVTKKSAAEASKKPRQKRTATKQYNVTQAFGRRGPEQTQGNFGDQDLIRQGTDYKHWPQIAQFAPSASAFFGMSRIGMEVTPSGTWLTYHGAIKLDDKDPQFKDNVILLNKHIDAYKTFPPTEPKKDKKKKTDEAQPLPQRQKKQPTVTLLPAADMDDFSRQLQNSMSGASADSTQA

B1: first antibody (monoclonal antibody purified from the culture supernatant of the hybridoma of Clone 1) (antibody, V domains shown)
VH: QVTLKESGPGILQPSQTLSLTCSFSGFSLSTSGTGVSWIRQPSGKGLEWLAHIYWDDDKRYNPSLKSRLTVSKDTSGNQVFLKITSVDTADTATYYCARSNYGYDLDYWGQGTTLTVSS
VL: DIVMTQSQKFMSTSVGDRVSVTCKASQNVGTNVVWYQQKPGQSPKALIYSASYRYSGVPDRFTGSGSGTDFTLTISNVQSEDLAEYFCQQYNNYPLTFGSGTKLEIKR
notes: also called capture antibody
Consider B1, for which the binding result was “binds”.
